{
  "source": "paper PMC10119177",
  "about": "(2023)",
  "data": [
    {"target": "recombinant IgI3 domain of the S. pyogenes R28 protein (R28-IgI3), wildtype (S. pyogenes) (UniProt Q9XDB6)", "assay": "ITC; iTC200, 25 °C, 16 injections of 2.42 µl, 30 mM Tris-HCl, 150 mM NaCl, pH 7.5, 750 rpm, in duplicate; 500 µM rCEACAM-N domains in the syringe, 50 µM rR28-IgI3 (methods)", "units": {"Kd": "nM"}, "values": [
      {"substance": "rCEACAM1-N N97A (from UniProt P13688 34-141) (domain or fragment)", "Kd": 210},
      {"substance": "rCEACAM1-N Q44A (from UniProt P13688 34-141) (domain or fragment)", "Kd": 920},
      {"substance": "rCEACAM1-N Q89A (from UniProt P13688 34-141) (domain or fragment)", "Kd": 687},
      {"substance": "rCEACAM1-N V96A (from UniProt P13688 34-141) (domain or fragment)", "Kd": 116}
    ]}
  ]
}
